According to article PMC13021935:

Target: CENP-A nucleosomes reconstituted on an 18 x 601 DNA array (xlCENP-A-myc/H4 tetramer with H2A/H2B dimers) (X. laevis | not stated) (UniProt Q569M3)

Substance “Xenopus laevis M18BP1-L S760D (xlM18BP1-L^S760D-3xFLAG) (natural protein)” has a centromere localisation (immunofluorescence, FLAG) on sperm nuclei in interphase egg extract immunodepleted of endogenous CENP-C and M18BP1, relative to WT FLAG-M18BP1-L (% of WT levels) of 30.
